PMC4598844, “BAP1 promotes breast cancer cell proliferation and metastasis by deubiquitinating KLF5” (Nature Communications, 2015)

Target: T1, GST-BAP1, purified recombinant (human, UniProt Q92560 1-729)
T1 construct: BRCA1-associated protein 1 (BAP1), human, wild type, cloned from MCF10A cells into pGEX-6p-1; also called purified GST-BAP1; source: E. coli BL21 (DE3), purified (glutathione sepharose 4B)
T1 sequence (looked up): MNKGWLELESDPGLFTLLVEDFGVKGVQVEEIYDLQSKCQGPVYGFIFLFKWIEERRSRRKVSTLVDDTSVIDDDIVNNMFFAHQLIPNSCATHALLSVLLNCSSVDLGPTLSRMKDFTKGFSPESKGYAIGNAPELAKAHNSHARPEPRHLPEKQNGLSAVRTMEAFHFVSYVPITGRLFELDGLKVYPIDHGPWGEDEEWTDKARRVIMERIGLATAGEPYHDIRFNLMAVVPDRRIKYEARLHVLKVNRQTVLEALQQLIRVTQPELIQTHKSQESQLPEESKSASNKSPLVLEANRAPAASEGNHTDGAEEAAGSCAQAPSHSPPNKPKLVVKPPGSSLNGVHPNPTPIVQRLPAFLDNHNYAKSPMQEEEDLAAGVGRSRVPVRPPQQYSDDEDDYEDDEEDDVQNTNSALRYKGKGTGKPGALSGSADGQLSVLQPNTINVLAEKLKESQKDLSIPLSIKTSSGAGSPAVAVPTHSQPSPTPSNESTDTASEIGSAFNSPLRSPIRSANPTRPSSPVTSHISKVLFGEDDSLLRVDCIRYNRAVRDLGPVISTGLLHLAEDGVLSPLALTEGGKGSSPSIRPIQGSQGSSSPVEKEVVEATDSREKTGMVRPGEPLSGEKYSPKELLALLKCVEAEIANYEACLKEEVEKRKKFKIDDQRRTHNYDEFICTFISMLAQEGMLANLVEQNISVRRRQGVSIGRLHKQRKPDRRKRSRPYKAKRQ
Test: pull-down; purified recombinant GST-BAP1 (and GST) pulled down with glutathione beads; KLF5-6 × His detected by WB
Conditions: both partners purified

B1: KLF5-6 × His, purified recombinant (natural protein)
chain: not shown
notes: Krüppel-like zinc-finger transcription factor 5 (KLF5), subcloned into the pET28-3C vector; The tag is printed after the protein's name; not repeated for this construct; source: E. coli BL21 (DE3), purified (Ni-NTA)
- binding result: binds
